Test results: patent US20260028403A1 (Zymeworks, published 2026)
Changes are numbered by the printed parent chain. Numbers in names are those of the source.

What was measured:
[1] = target: T1, CD28 on primary human T cells (human, UniProt P10747 19-220); experiment: cell-based or functional assay
[2] = target: T2, Recombinant human/cynomolgus/rhesus macaque CD28 mouse IgG2a Fc fusion protein (Acro Biosystems) (human/cynomolgus/rhesus macaque, UniProt P10747 19-152); experiment: SPR, in-format anti-CD28 variants, huCD28
T2 construct: bought; also called huCD28

Human CLDN18.2 [3] = target: T3, Human CLDN18.2 (human); experiment: flow cytometry, SNU 601 cells
T3 construct: on transfected HEK293-6E cells or native on SNU 601 cells
Description: To determine the impact of the trispecific construct format on the construct's ability to binding CLDN18.2, the binding affinity to CLDN18.2 was measured for certain constructs using flow cytometry as described below.
To that end, cells (>80% viability) were resuspended to 1×10⁶ cells/mL in FACS buffer (PBS+2% FBS; Gibco) and seeded in a 96 well v-bottom plate (Sarstedt). Cells were mixed with antibody dilutions and incubated at 4° C. for one hour. Following incubation, cells were washed twice by adding 150 mL FACS buffer and centrifuging for 400×g for 3 minutes. […] Cells were washed twice by adding 150 mL FACS buffer and centrifuging for 400×g for 3 minutes. Cells were resuspended in FACS buffer and acquired on the BD LSRFortessa Cell Analyzer.

[4] = target: T4, Recombinant human CD3 epsilon/delta heterodimer, his tag protein (Acro Biosystems) (human, UniProt P07766 23-126; P04234 22-105); experiment: SPR Biacore T200, CD3 e/d-his on CM5, construct injected, 1:1 model;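 also: measured at 25 °C in HEPES-buffered saline with EDTA and Tween 20 at pH 7.4, values are means of three independent runs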
T4 construct: bought
Description: All SPR binding experiments were carried out using a BiacoreT200 instrument at 25° C. with 10 mM HEPES, 150 mM NaCl, 3 mM EDTA, and 0.05% Tween 20 at pH 7.4. Recombinant human CD3 epsilon/delta heterodimer, his tag protein (Acro Biosystems) was covalently immobilized on CM5 sensor chips by amine coupling. Purified antibody constructs to be tested were indirectly captured on the sensor chip by binding to the recombinant CD3 protein when injected at 30 μL/min for 140-500 s following a dissociation for 600-1200 s. Resultant kₒₙ, koff and KD values were determined from fitting the sensorgrams using the 1:1 binding model with reported values as the mean of three independent runs.

[5] = target: T2, Recombinant human/cynomolgus/rhesus …; experiment: SPR Biacore T200, CD28-mIgG2a Fc on CM5, construct injected, 1:1 model;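 also: fc fusion captured by amine coupling, run at 25 °C in HEPES buffer pH 7.4, association 140-500 s then dissociation 600-1200 s, values averaged over three independent runs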
[6] = target: T1, CD28 on primary human T cells; experiment: cell-based or functional assay; remark: listed apart in the source
[7] = target: T1, CD28 on primary human T cells; experiment: cell-based or functional assay; remark: listed apart in the source
[8] = target: T1, CD28 on primary human T cells; experiment: cell-based or functional assay; remark: listed apart in the source
Cynomolgus monkey CLDN18 = target: T5, Cynomolgus monkey CLDN18 (cynomolgus monkey); experiment: flow cytometry, HEK293-6E + cyno CLDN18, 4PL fit
T5 construct: on transfected HEK293-6E cells; also called Cyno CLDN18; cyno CLDN18.2 ortholog
T5 chain: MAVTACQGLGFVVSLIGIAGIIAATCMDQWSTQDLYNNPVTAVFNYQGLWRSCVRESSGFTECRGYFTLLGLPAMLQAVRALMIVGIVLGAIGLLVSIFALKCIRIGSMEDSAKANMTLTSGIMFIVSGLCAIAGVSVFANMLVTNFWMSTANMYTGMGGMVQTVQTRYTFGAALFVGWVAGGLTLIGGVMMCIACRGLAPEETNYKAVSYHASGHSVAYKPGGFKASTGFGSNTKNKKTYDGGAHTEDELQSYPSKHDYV
Description: (§1) The purified rabbit chimeric and humanized constructs were assessed for binding to HEK293-6E cells transfected with human, cynomolgus monkey, or mouse CLDN18.2 orthologs (TABLE 12) by flow cytometry. […] Constructs were also assessed for binding to HEK293-6E cells transfected with human CLDN18.1.

Mouse CLDN18 A2.1 = target: T6, Mouse CLDN18 A2.1 (mouse, UniProt P56857 10-264); experiment: flow cytometry, HEK293-6E + mouse CLDN18, 4PL fit
T6 construct: on transfected HEK293-6E cells; also called Mouse CLDN18 2.1; mouse CLDN18.2 ortholog
T6 chain: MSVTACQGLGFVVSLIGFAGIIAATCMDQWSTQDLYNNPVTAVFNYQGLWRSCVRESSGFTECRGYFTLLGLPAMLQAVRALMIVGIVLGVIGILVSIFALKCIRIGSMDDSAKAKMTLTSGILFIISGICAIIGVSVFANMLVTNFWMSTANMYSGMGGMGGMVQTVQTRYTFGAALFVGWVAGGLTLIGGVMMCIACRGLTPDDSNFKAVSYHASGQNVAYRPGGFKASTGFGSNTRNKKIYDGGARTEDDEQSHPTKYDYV
Description: as §1

Human CLDN18.2 [9] = target: T3, Human CLDN18.2; experiment: flow cytometry, HEK293-6E + human CLDN18.2, 4PL fit
Description: as §1

B1: v37638 (trispecific antibody, human IgG1, kappa, L234A L235A)
heavy 1: not shown
heavy 2: QVQLVESGGGLVQPGGSLRLSCSVSGIDLSSNPMIWVRQAPGKGLQYIGIIDTDGSTYYADWAKGRFTISKDSTTVYLQINSPRAEDTAVYYCARRLHGSSNGYYDDLWGQGTLVTVSSGGGGSGGGGSGGGGSGGGGSDGQMTQSPSSVSASVGDRVTITCQASQSIYSYLSWYQQKPGQRPKLLIYKASTLASGVPSRFSGSGSGTDFTLTISSVQPEDFATYYCQQGYTVTNVDKNTFGGGTKVEIKAAEPKSSDKTHTCPPCPAPEAAGGPSVFLFPPKPKDTLMISRTPEVTCVVVSVSHEDPEVKFNWYVDGVEVHNAKTKPREEQYNSTYRVVSVLTVLHQDWLNGKEYKCKVSNKALPAPIEKTISKAKGQPREPQVYVLPPSRDELTKNQVSLLCLVKGFYPSDIAVEWESNGQPENNYLTWPPVLDSDGSFFLYSKLTVDKSRWQQGNVFSCSVMHEALHNHYTQKSLSLSPG
light: DIQMTQSPSSLSASVGDRVTITCRASESVEYYVTSLMQWYQQKPGKAPKLLIYAASNVDSGVPSRFSGSGSGTDFTLTISSLQPEDIATYYCQQSRKVPFTFGGGTKVEIKRTVAAPSVFIFPPSDEQLKSGTASVVCLLNNFYPREAKVQWKVDNALQSGNSQESVTEQDSKDSTYSLSSTLTLSKADYEKHKVYACEVTHQGLSSPVTKSFNRGEC
notes: wild type huTN228 Fab; Het Fc, FcKO; also called Cldn18.2xCD3xCD28 trispecific
IC50, T cell-dependent cytotoxicity on SNU 601 [1]: 0.17 pM | Maximum Killing (%), SNU 601 [1]: 88.2% | Fold-change from WT [2]: 1 fold | Kd [2]: 22.2 nM | koff [2]: 0.0021 s⁻¹ | kon [2]: 95500 M⁻¹ s⁻¹ | Bmax (Human CLDN18.2 [3]): 9140 MFI | EC50 (Human CLDN18.2 [3]): 47.5 nM | Kd [4]: 74.6 nM | koff [4]: 0.0123 s⁻¹ | kon [4]: 164000 M⁻¹ s⁻¹ | Kd [5]: 22.2 nM | koff [5]: 0.0021 s⁻¹ | kon [5]: 95500 M⁻¹ s⁻¹ | IL-2 maximum cytokine, T cells alone [6]: 1750 pg/mL | IL-2 maximum cytokine, T cells with SNU 601 cells [6]: 3710 pg/mL | TNFa maximum cytokine, T cells alone [6]: 115 pg/mL | TNFa maximum cytokine, T cells with SNU 601 cells [6]: 670 pg/mL

B2: v38992 (trispecific antibody, human IgG1, kappa, L234A L235A)
heavy 1: not shown
heavy 2: EVQLVESGGGLVQPGGSLRLSCAASGVTFNYYGMSWIRQAPGKGLEWVASITSSGGRIYYPDSVKGRFTISRENTQKTLYLQMNSLRAEDTAVYYCTLDGRDGWVAYWGQGTLVTVSSGGGGSGGGGSGGGGSGGGGSNFMLTQPHSVSESPGKTVTISCKRNTGNIGSNYVNWYQQHEGSSPTTIIYRNDKRPDGVSDRFSGSIDRSSKSASLTISNLKTEDEADYFCQSYSSGFIFGGGTKLTVLAAEPKSSDKTHTCPPCPAPEAAGGPSVFLFPPKPKDTLMISRTPEVTCVVVSVSHEDPEVKFNWYVDGVEVHNAKTKPREEQYNSTYRVVSVLTVLHQDWLNGKEYKCKVSNKALPAPIEKTISKAKGQPREPQVYVLPPSRDELTKNQVSLLCLVKGFYPSDIAVEWESNGQPENNYLTWPPVLDSDGSFFLYSKLTVDKSRWQQGNVFSCSVMHEALHNHYTQKSLSLSPG
light: B1 light
notes: also called v37642 format, CD28 VH G1064S
IFNg EC50, T cells + SNU 601 [7]: 23 pM | IFNg maximum cytokine, T cells + SNU 601 [7]: 3990 pg/mL | IL-2 EC50, T cells + SNU 601 [7]: 9.16 pM | IL-2 maximum cytokine, T cells + SNU 601 [7]: 5560 pg/mL | Fold-change from WT [2]: 3.1 fold | Kd [2]: 130 nM | koff [2]: 0.00738 s⁻¹ | kon [2]: 59800 M⁻¹ s⁻¹ | IFNg mean cytokine, T cells alone, 45 nM construct [8]: 559 pg/mL | IL-2 mean cytokine, T cells alone, 45 nM construct [8]: 1690 pg/mL

B3: v38993 (trispecific antibody, human IgG1, kappa, L234A L235A)
heavy 1: not shown
heavy 2: B2 heavy 2
light: B1 light
notes: also called v37642 format, CD28 VH L1112aN
IFNg EC50, T cells + SNU 601 [7]: 79.3 pM | IFNg maximum cytokine, T cells + SNU 601 [7]: 4450 pg/mL | IL-2 EC50, T cells + SNU 601 [7]: 28.7 pM | IL-2 maximum cytokine, T cells + SNU 601 [7]: 8410 pg/mL | Fold-change from WT [2]: 3.4 fold | Kd [2]: 144 nM | koff [2]: 0.00817 s⁻¹ | kon [2]: 59000 M⁻¹ s⁻¹ | IFNg mean cytokine, T cells alone, 45 nM construct [8]: 475 pg/mL | IL-2 mean cytokine, T cells alone, 45 nM construct [8]: 1520 pg/mL

B4: v35777 (antibody, human IgG1, V domains shown)
VH: QSLEESGGRLVTPGTPLTLTCTVSGIDLSSNPMIWVRQAPGKGLQYIGIIDTDGSTYYASWAKGRFTGSKTSTTVDLKITSPTTEDTATYFCARRLHGSSNGYYDDLWGQGTLVTISS
VL: DGVMTQTPSSVSAAVGGTVTIKCQASQSIYSYLSWYQQKPGQRPKLLIYKASTLASGVPSRFKGSGSGTEFTLTISGVQCDDAATYYCQQGYTVTNVDKNTFGGGTEVVVK
notes: also called parental rabbit chimeric; rabbit-human chimeric IgG1/kappa anti-CLDN18.2
Bmax (Cynomolgus monkey CLDN18): 1660 | EC50 (Cynomolgus monkey CLDN18): 0.48 nM | Bmax (Mouse CLDN18 A2.1): 1640 | EC50 (Mouse CLDN18 A2.1): 0.87 nM | Bmax (Human CLDN18.2 [9]): 2070 | EC50 (Human CLDN18.2 [9]): 1.29 nM

B5: v37407 (antibody, human IgG1, V domains shown)
VH: QVQLVESGGGLVQPGGSLRLSCSVSGIDLSSNPMIWVRQAPGKGLEYIGIIDTDGSTYYADWAKGRFTISKDSTTVYLQMNSLRAEDTAVYYCARRLHGSSNGYYDDLWGQGTLVTVSS
VL: DGQMTQSPSSVSASVGDRVTITCQASQSIYSYLSWYQQKPGQRPKLLIYKASTLASGVPSRFSGSGSGTDFTLTISSVQPEDFATYYCQQGYTVTNVDKNTFGGGTKVEIK
notes: human IgG1-based monoclonal antibody; also called H4-L4
Bmax (Cynomolgus monkey CLDN18): 1410 | EC50 (Cynomolgus monkey CLDN18): 0.24 nM | Bmax (Mouse CLDN18 A2.1): 1540 | EC50 (Mouse CLDN18 A2.1): 0.8 nM | Bmax (Human CLDN18.2 [9]): 2040 | EC50 (Human CLDN18.2 [9]): 1.54 nM

B6: v37408 (antibody, human IgG1, V domains shown)
VH: B5 VH
VL: B5 VL with F83A, I110V
notes: human IgG1-based monoclonal antibody; also called H4-L2
Bmax (Cynomolgus monkey CLDN18): 1520 | EC50 (Cynomolgus monkey CLDN18): 0.36 nM | Bmax (Mouse CLDN18 A2.1): 1920 | EC50 (Mouse CLDN18 A2.1): 2.65 nM | Bmax (Human CLDN18.2 [9]): 2190 | EC50 (Human CLDN18.2 [9]): 1.87 nM

B7: v37411 (antibody, human IgG1, V domains shown)
VH: B5 VH with E46Q, M80I, L83P
VL: B5 VL
notes: human IgG1-based monoclonal antibody; also called H5-L4; anti-CLDN18.2 mAb
Bmax (Cynomolgus monkey CLDN18): 1730 | EC50 (Cynomolgus monkey CLDN18): 0.37 nM | Bmax (Human CLDN18.2 [3]): 11700 MFI | EC50 (Human CLDN18.2 [3]): 8.9 nM | Bmax (Mouse CLDN18 A2.1): 1790 | EC50 (Mouse CLDN18 A2.1): 1.03 nM | Bmax (Human CLDN18.2 [9]): 2170 | EC50 (Human CLDN18.2 [9]): 1.05 nM

B8: v37409 (antibody, human IgG1, V domains shown)
VH: QVQLVESGGGLVQPGGSLRLSCSVSGIDLSSNPMIWVRQAPGKGLEYIGIIDTDGSTYYADWAKGRFTISKDSSKNTVYLQMNSLRAEDTAVYYCARRLHGSSNGYYDDLWGQGTLVTVSS
VL: B5 VL
notes: human IgG1-based monoclonal antibody; also called H2-L4
Bmax (Cynomolgus monkey CLDN18): 1500 | EC50 (Cynomolgus monkey CLDN18): 0.35 nM | Bmax (Mouse CLDN18 A2.1): 1530 | EC50 (Mouse CLDN18 A2.1): 0.89 nM | Bmax (Human CLDN18.2 [9]): 1960 | EC50 (Human CLDN18.2 [9]): 1.22 nM

B9: v37410 (antibody, human IgG1, V domains shown)
VH: B8 VH with E46Q
VL: B5 VL
notes: human IgG1-based monoclonal antibody; also called H3-L4
Bmax (Cynomolgus monkey CLDN18): 1500 | EC50 (Cynomolgus monkey CLDN18): 0.31 nM | Bmax (Mouse CLDN18 A2.1): 1690 | EC50 (Mouse CLDN18 A2.1): 1.02 nM | Bmax (Human CLDN18.2 [9]): 1910 | EC50 (Human CLDN18.2 [9]): 0.97 nM

B10: v37640 (trispecific antibody, human IgG1, kappa, L234A L235A)
heavy 1: QVQLQESGPGLVKPSETLSLTCAVSGFSLTSYGVHWIRQPPGKGLEWLGVIWPGGGTNFNSALMSRLTISEDTSKNQVSLKLSSVTAADTAVYYCARDRAYGNYLYAMDYWGQGTLVTVSSASTKGPSVFPLAPSSKSTSGGTAALGCLVKDYFPEPVTVSWNSGALTSGVHTFPAVLQSSGLYSLSSVVTVPSSSLGTQTYICNVNHKPSNTKVDKKVEPKSCDKTHTCPPCPAPEAAGGPSVFLFPPKPKDTLMISRTPEVTCVVVSVSHEDPEVKFNWYVDGVEVHNAKTKPREEQYNSTYRVVSVLTVLHQDWLNGKEYKCKVSNKALPAPIEKTISKAKGQPREPQVYVYPPSRDELTKNQVSLTCLVKGFYPSDIAVEWESNGQPENNYKTTPPVLDSDGSFALVSKLTVDKSRWQQGNVFSCSVMHEALHNHYTQKSLSLSPGGGGGSGNFMLTQPHSVSESPGKTVTISCKRNTGNIGSNYVNWYQQHEGSSPTTIIYRNDKRPDGVSDRFSGSIDRSSKSASLTISNLKTEDEADYFCQSYSSGFIFGGGTKLTVLGGGGSGGGGSGGGGSGGGGSEVQLVESGGGLVQPGGSLRLSCAASGVTFNYYGMSWIRQAPGKGLEWVASITSSGGRIYYPDSVKGRFTISRENTQKTLYLQMNSLRAEDTAVYYCTLDGRDGWVAYWGQGTLVTVSS
heavy 2: B1 heavy 2
light: B1 light
notes: Het Fc, FcKO; also called Cldn18.2xCD28xCD3 trispecific
Bmax (Human CLDN18.2 [3]): 9770 MFI | EC50 (Human CLDN18.2 [3]): 26.4 nM | Kd [4]: 296 nM | koff [4]: 0.0155 s⁻¹ | kon [4]: 52200 M⁻¹ s⁻¹ | Kd [5]: 27.3 nM | koff [5]: 0.00212 s⁻¹ | kon [5]: 77800 M⁻¹ s⁻¹
